Test results taken from patent US20260043816A1 (AC IMMUNE, published 2026).
Square brackets hold non-standard residues; d marks the D form. Ends that are not written are not given here. * marks the point of attachment. Biotin = O=C1N[C@H]2[C@H](CS[C@H]2CCCCC(=O)*)N1; pS = N[C@@H](COP(=O)(O)O)C(=O)O

T1: biotinylated TDP-43 phospho peptide 396-409 (pS404) (human)
T1 peptide: Biotin-GFNGGFGS[pS]MDSKS

T2: biotinylated TDP-43 phospho peptide 396-409 (pS403) (human, phosphoserine at 403 (SEQ ID NO: 1 numbering); biotin on the N-terminus)
T2 peptide: GFNGGFGSSMDSKS

T3: biotinylated TDP-43 phospho peptide 401-413 (pS409) (human)
T3 peptide: Biotin-FGSSMDSK[pS]SGWG

T4: biotinylated TDP-43 phospho peptide 396-409 (pS403 and pS404) (human, phosphoserine at 403 and 404 (SEQ ID NO: 1 numbering); biotin on the N-terminus)
T4 peptide: GFNGGFGSSMDSKS

T5: biotinylated TDP-43 phospho peptide 401-413 (pS410) (human)
T5 peptide: Biotin-FGSSMDSKS[pS]GWG

T6: biotinylated TDP-43 phospho peptide 401-413 (pS409 and pS410) (human)
T6 peptide: Biotin-FGSSMDSK[pS][pS]GWG

T7: biotinylated non-phosphorylated TDP-43 peptide 366-414 (human, biotin on the N-terminus)
T7 peptide: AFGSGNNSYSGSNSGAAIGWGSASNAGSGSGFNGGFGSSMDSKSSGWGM

T8: Peptide 29 (human, phosphoserine at pS409 and pS410 (human TDP-43 numbering, in the SEQ ID NO: 9 part); Trioxatridecan-succinamic acid (Ttds) linker between SEQ ID NO: 7 and SEQ ID NO: 9)
T8 peptide: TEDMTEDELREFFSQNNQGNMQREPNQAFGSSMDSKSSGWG

T9: Peptide 28 (human, phosphoserine at pS403 and pS404 (human TDP-43 numbering, in the SEQ ID NO: 8 part); Trioxatridecan-succinamic acid (Ttds) linker between SEQ ID NO: 7 and SEQ ID NO: 8)
T9 peptide: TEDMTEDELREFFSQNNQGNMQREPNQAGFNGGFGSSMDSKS

T10: TDP-43 peptide consisting of amino acid sequence (SEQ ID NO: 5) (comprising pS375 and pS379) (human)
T10 construct: also called target peptide
T10 peptide: GNNSY[pS]GSN[pS]GAAIG


What was measured:
[1] = target: T1, biotinylated TDP-43 phospho peptide …; experiment: capture ELISA, antibody on anti-mouse IgG, biotinylated peptide
Protocol: (§1) Briefly, for capture detection in ELISA, wells of 96-well plates were coated with 5 μg/mL goat anti-mouse IgG (Fc gamma fragment specific), in carbonate buffer, overnight at 4° C. Plates were then washed with 0.05% Tween-20/PBS and blocked with 1% bovine serum albumin (BSA) in 0.05% Tween-20/PBS for 1 hour at 37° C. Phospho TDP-43 antibodies were then added at 5 μg/mL and incubated for 2 hours at 37° C. after which the plates were washed as described above. Biotinylated peptides representing each of the phospho sites, or non-phosphorylated, were incubated at 0.5 mM in 0.1% BSA and PBS for 1 hour at 37° C. after which the plates were washed. A streptavidin-HRP-conjugate (R&D Systems, Minnesota, United States) was added at 1/200 dilution in 0.05% Tween-20/1% BSA in PBS for 45 minutes in the dark at ambient temperature. After the final wash, plates were incubated with TMB (Sigma-Aldrich, Switzerland), an HRP substrate solution, and read at 405 nm using an ELISA plate reader (Tecan, Switzerland).

[2] = target: T2, biotinylated TDP-43 phospho peptide …; experiment: as above
Protocol: as §1

[3] = target: T3, biotinylated TDP-43 phospho peptide …; experiment: as above
Protocol: as §1

[4] = target: T4, biotinylated TDP-43 phospho peptide …; experiment: as above
Protocol: as §1

[5] = target: T5, biotinylated TDP-43 phospho peptide …; experiment: as above
Protocol: as §1

[6] = target: T6, biotinylated TDP-43 phospho peptide …; experiment: as above
Protocol: as §1

[7] = target: T7, biotinylated non-phosphorylated TDP-43 …; experiment: as above
Protocol: as §1

Peptide 29 = target: T8, Peptide 29; experiment: SPR Biacore 8K, antibody captured, peptide analyte, single-cycle kinetics, 1:1 fit
Protocol: (§2) Each cycle started with the non-covalent capture of the antibody which were diluted in running buffer to a final concentration of 5 μg/mL and injected for 120 sec with a flow rate of 10 μL/min. Antibodies being measured were captured in channels […], leaving Fc 1 as a blank Fc. Capture levels were evaluated following a 120 sec stabilization period after each antibody injection. ACI-7071-809F12-Ab1-rec2 was used as control, binding to the non-phosphorylated sequences represented in peptides 28 and 29.
(§3) Injections of peptides 28 or 29 were performed using single-cycle kinetics with increasing concentrations ranging from 1.2 to 100 nM prepared as a 3-fold serial dilution. Injections were performed with contact times of 300 sec/injection at a flow rate of 30 μL/min. A dissociation phase of 900 sec followed the final injection. Sensor surface was regenerated by two injection of 10 mM Glycine-HCl pH 1.7 at a flow rate of 10 μL/min for 60 sec, followed by a stabilization period of 120 sec. Results obtained from single-cycle kinetics were double-referenced using the blank Fc 1 and buffer cycles and evaluated by Biacore 8K evaluation software (Cytiva). The following kinetic parameters were obtained using the 1:1 binding fit model with variable Reflective Index (RI): association rate constant (ka), dissociation rate constant (kd), affinity constant (KD) and saturation response (Rmax).

Peptide 28 = target: T9, Peptide 28; experiment: as above
Protocol: as §2, §3

[8] = target: T11, recombinant full length TDP-43 (SEQ ID NO: 1, FL TDP-43) (human, UniProt Q13148 1-414); experiment: pairing sandwich ELISA, antibody coated as capture, FL TDP-43 titrated
T11 construct: also called recombinant human soluble FL TDP-43; soluble human TDP-43
Protocol: (§4) The capacity of antibodies to bind phospho TDP-43 and TDP-43 was determined using a sandwich enzyme-linked immunosorbent assay (ELISA), where each antibody was paired with a second TDP-43 antibody previously characterized for TDP-43 binding and performance in sandwich immunoassays, ACI-7071-809F12-Ab1-rec2 (as described in WO2020234473) or ACI-7069-636E5-Ab1 (as described in WO2020234473). ELISA plates (Nunc™ Edge™ 96-Well, Non-Treated, Flat-Bottom Microplate, ThermoFisher Scientific, Denmark) were coated with 5 μg/mL of anti-phospho TDP-43 or anti-TDP-43 antibodies in carbo/bicarbonate buffer, overnight at 4° C. Plates were then washed with 0.05% Tween-20/PBS and blocked with 1% bovine serum albumin (BSA) in 0.05% Tween-20/PBS for 1 hour at 37° C. The plates were then washed again as described above.
Serial-dilutions of target peptide or protein were then added to the plates. For assays with anti-phospho TDP-43 antibodies, one of four peptide conjugates (peptides 11, 23, 28, or 29) each composed of two TDP-43 sequences, one phosphorylated and one non-phosphorylated, conjugated together with a Trioxatridecan-succinamic acid linker (Ttds, binding regions and sequences shown in Table 4) were used. Peptides 11, 23, 28, and 29 were added in a 10-fold serial dilution starting at 0.5 μM. For assays with TDP-43 antibodies only, recombinant full length TDP-43 (SEQ ID NO: 1, FL TDP-43) was diluted 3-fold from 21.9 pM. Plates were incubated for 1 hour at 37° C., and then washed. […] PEG-biotinylated phospho TDP-43 or TDP-43 antibodies were then respectively added to the wells and incubated for 1 hour at 37° C., after which the plates were washed. Horseradish peroxidase (HRP)-conjugated streptavidin (R&D Systems, Switzerland) was added at 1/200 dilution in 1% BSA and 0.05% Tween-20/PBS for 45 min at room temperature. […] The plate was read at 450 nm using an ELISA plate reader (Tecan, Switzerland).

[9] = target: T10, TDP-43 peptide consisting of amino acid …; experiment: SPR, antibody on chip, peptide analyte
Protocol: For antibodies ACI-8070-942.30D12-Ab1 and ACI-7071-809F12-Ab1-rec2 affinity was measured on Biacore 5200 instrument (Cytiva, Switzerland). The instrument was primed with running buffer HBS-P+ (10× HBS-P+ diluted to 1× in Milli-Q water) and flow-cells (Fc) 1-4 of a CM7 Series S sensor chip (Cytiva, 29147020) were activated with a fresh solution of EDC/NHS (Amine Coupling Kit type 2, BR100633, Cytiva) 1:1 ratio of both reagents at 10 μL/min for 420 sec and polyclonal rabbit anti-mouse IgG antibody (Cytiva, 29215281) was immobilized at […] in 10 mM sodium acetate pH 5.0 for 420 sec. Next, all Fc were quenched with 1 M ethanolamine (Cytiva, BR100633) for 420 sec. Immobilization levels were evaluated following ethanolamine quenching. A mouse IgG2a isotype control antibody and ACI-8070-942.30D12-Ab1 were captured on Fc 1 and Fc 2, respectively. Antibodies were diluted in 10 mM sodium acetate pH5.5 to a final concentration of 50 μg/mL and injected using the aim immobilization level functionality with a target of 10000 RU. […] Results obtained from single-cycle kinetics were double-referenced using the blank Fc 1 and buffer cycles and evaluated using the Biacore Insight Evaluation software (Cytiva). […]

[10] = target: T11, recombinant full length TDP-43 (SEQ ID …); experiment: SPR Biacore T200, FL TDP-43 immobilized, antibody analyte (avidity), 1:1 fit
Protocol: Binding avidity of ACI-7071-4665-B5-R3B-Ab2 to soluble FL TDP-43 was evaluated by determining the KD value using SPR (Biacore T200, GE Healthcare Life Sciences). Recombinant human soluble FL TDP-43 was immobilized on a CM5 Series S sensor chip (GE Healthcare Life Sciences) by amine coupling. Soluble TDP-43 was immobilized at a concentration of 5 μg/ml in 10 mM sodium acetate (pH 4.5) with a flow rate of 5 μl/min for 420 seconds resulting in an immobilization level of 150 RU. […] Antibodies were injected at a flow rate of […] for 90 seconds contact time and 700 seconds dissociation phase followed by three regenerations with 10 mM glycine-HCl (pH 1.7). For the optimized SPR protocol the antibodies were diluted 3-fold starting from 300 nM and dilute down to 1.2 nM and injected for 300 seconds at 30 μL/min followed by 600 seconds of dissociation. The chip surface was regenerated by one injection with 10 mM glycine-HCl (pH 1.7). Results obtained from binding kinetics were double referenced using a blank flow cell and a buffer cycle, and were evaluated with a global 1:1 fitting model with RI.

[11] = target: T11, recombinant full length TDP-43 (SEQ ID …); experiment: pairing sandwich ELISA, biotinylated antibody as detector, FL TDP-43 titrated
Protocol: as §4
Serial-dilutions of target peptide or protein were then added to the plates. For assays with anti-phospho TDP-43 antibodies, one of four peptide conjugates (peptides 11, 23, 28, or 29) each composed of two TDP-43 sequences, one phosphorylated and one non-phosphorylated, conjugated together with a Trioxatridecan-succinamic acid linker (Ttds, binding regions and sequences shown in Table 4) were used. Peptides 11, 23, 28, and 29 were added in a 10-fold serial dilution starting at 0.5 μM. […] The plate was read at 450 nm using an ELISA plate reader (Tecan, Switzerland).

| binding result [1] | binding result [2] | binding result [3] | binding result [4] | binding result [5] | binding result [6] | binding result [7] | Kd (Peptide 29) | koff (Peptide 29) | kon (Peptide 29) | Kd (Peptide 28) | koff (Peptide 28) | kon (Peptide 28) | EC50 [8] | binding result [9] | Kd [10] | koff [10] | kon [10] | EC50 [11] | Binder |
| --- | --- | --- | --- | --- | --- | --- | --- | --- | --- | --- | --- | --- | --- | --- | --- | --- | --- | --- | --- |
| no binding (tested: peptide at 0.5 mM) | no binding (tested: peptide at 0.5 mM) | no binding (tested: peptide at 0.5 mM) | no binding (tested: peptide at 0.5 mM) | no binding (tested: peptide at 0.5 mM) | no binding (tested: peptide at 0.5 mM) | no binding (tested: peptide at 0.5 mM) | – | – | – | – | – | – | – | – | – | – | – | – | ACI-8070-942.30D12-Ab1 (antibody, V domains shown, Mouse hybridoma antibody; also called 942.30D12F9; pS375/pS379 TDP-43 antibody) VH: DVQLVESGGGLVQPGGSRKLSCEASGFTFSSIGMHWVRQAPEKGLEWVAYITSGSSTIYYADTVKGRFTISRDNPKNTLFLQMTSLRSEDTAIYYCAGSGPGTDYWGQGTTLTVSS VL: DIKMTQSPSSMYASLGERVTITCKASQDINSYLSWFQQKPGKSPKTLIYRANRLVDGVPSRFSGSGSGQDYSLTISSLEYEDMGIYYCLQYDEFPLTFGAGTKLELK |
| – | – | – | – | – | – | – | 7 nM | 0.00343 s⁻¹ | 490000 M⁻¹ s⁻¹ | 4.5 nM | 0.00231 s⁻¹ | 514000 M⁻¹ s⁻¹ | 0.181 nM | no binding | – | – | – | – | ACI-7071-809F12-Ab1-rec2 (as described in WO2020234473) (antibody, V domains shown, also called 809F12D8) VH: QVQLKESGPGLVAPSQSLSITCTVSGFSLNRNGVQWVRQPPGKGLEWLGVIWPGGSTNCNSALMSRLSISKDNSKSQVFLKMNSLHTDDTGIYYCARVGGNYVWDYNNYAWGQGTLVTVSA VL: DVLMTQTPLSLPVSLGDQASISCRSSQNIVHSIGNTYLEWYLQKPGQSPKLLIYKVSNRFSGVPDRFSGSGSGTDFTLKISRVEAEDLGVYYCFQGSHVPYTFGGGTKLEIR |
| no binding (tested: peptide at 0.5 mM) | no binding (tested: peptide at 0.5 mM) | no binding (tested: peptide at 0.5 mM) | no binding (tested: peptide at 0.5 mM) | no binding (tested: peptide at 0.5 mM) | no binding (tested: peptide at 0.5 mM) | binds | – | – | – | – | – | – | 0.072 nM | – | 0.39 nM | 1.66e-05 s⁻¹ | 42900 M⁻¹ s⁻¹ | 0.181 nM | ACI-7071-4665-B5-R3B-Ab2 (antibody, mouse IgG2a, V domains shown, also called 4665-B5-R3B-B8; ACI-7071-4665-B5-Ab2) VH: QVQLKQSGPELVKPGASVKLSCKASGYTFTTYDINWVKQRPGQGPEWIGWIYPRVGNTKYNEKFKDKATLTVDTSSSTAYMELHSLTSEDSAVYFCASALTYWGQGTLVTVSA VL: not shown |
